According to patent publication US10240180B2, “Multiplexed screening of enzyme activities using nanostructure-initiator mass spectrometry” (The Regents of the University of California, priority 2011, dated 2019):

Tests used:
Format in all cases: biochemical
[1] = Separate analysis of β-xylosidase activity (NIMS); conditions: XB-F17 substrate, 1 h
Protocol: The separate characterization of β-glucosidase and β-xylosidase activity was carried out in reaction volumes of 20-50 μL, by mixing 0.1 mM cellobiose with 8 μg of NS50010 in 50 mM sodium acetate buffer (pH 4.8), or 0.1 mM xylobiose with 0.13 μg (in […]) or 0.33 μg (in 50 μL) of 1,4-β-D-xylosidase in 50 mM potassium phosphate buffer (pH 7.5) with 1 mg/mL BSA. For the competition studies with cellobiose, samples additionally contained 10, 25, or 50 mM of unlabeled cellobiose (Sigma-Aldrich; St. Louis, Mo.). Other buffers used for the determination of the pH optima were McIlvaine's citrate/phosphate buffer (pH 2.6 and 6.0), 50 mM Tris buffer (pH 9.0) for NS50010, and 50 mM potassium phosphate buffer (pH 6.0), 50 mM Tris buffer (pH 9.0), 50 mM sodium borate buffer (pH 11.0), all with 1 mg/mL BSA for the β-xylosidase. Samples were incubated for 1 h at 35° C. (β-xylosidase) or 50° C. […]
In FIG. 4a, the determined temperature optima for the used enzymes were 50-60° C. for β-glucosidase (black) and 35° C. for β-xylosidase (gray). In FIG. 4b, the determined pH optima were around pH 4.8 for β-glucosidase (black) and around pH 7.5 for β-xylosidase (gray). […]
(§1) In each case 0.5-1 μL per quenched reaction sample was spotted onto the NIMS surface and removed after an incubation of ˜30 s. […] Enzyme activities were determined by forming product-to-substrate ratios.

[2] = Multiplexed β-glucosidase/β-xylosidase assay with known enzymes, cellobiose substrate; conditions: equal amounts CB-F17 and XB-F17 (0.1 mM each), 1 h
From the text: (§2) It can be difficult to discriminate between several products in simultaneous reactions using conventional spectroscopic methods since these reactions typically yield the same outputs and there are only a few unique absorption or emission patterns that can be resolved separately. In contrast, mass spectrometry can resolve thousands of ions and therefore we have discovered that it is well-suited for the parallel detection of large numbers of reaction products where the substrates and occurring products differ in mass. This is the case, for example, when using pentose and hexose-based substrates at the same time. The hydrolysis of polysaccharides with identical masses (e.g. cellobiose and maltose) can even be analyzed in the same run by using different chemical structures in the linker or perfluorinated tags of varying length. Thus, potentially dozens of enzymatic conversions can be tested simultaneously using this method. Here both β-glucosidase and β-xylosidase activities were detected simultaneously utilizing a substrate cocktail comprised of equal amounts of CB-F17 and XB-F17. In the non-enzyme control only signals for cellobiose and xylobiose were detectable (FIG. 5a). […]
as §1

[3] = Multiplexed β-glucosidase/β-xylosidase assay with known enzymes, xylobiose substrate; conditions: equal amounts CB-F17 and XB-F17 (0.1 mM each), 1 h
From the text: as §2, §1

B1: β-xylosidase: 1,4-β-D-xylosidase from Bacillus pumilus purchased from Megazyme (protein, UniProt P07129 1-535, looked up)
Beta-xylosidase: MKITNPVLKGFNPDPSICRAGEDYYMAVSTFEWFPGVQIYHSKDLIHWRLAARPLQKTSQLDMKGNPDSGGVWAPCLSYADGQFWLIYSDIKVVDGPFKDGHNYLVTADAVDGEWSDPVRLNSSGFDPSLFHDPSGKKYVLNMLWDHREKHHSFAGIALQEYSVSEKKLVGERKVIFKGTPIKLTEAPHLYYINDVYYLLTAEGGTRYEHAATIARSSRIDGPYEVHPDNPILTAFHAPSHPLQKCGHASIVQTHTNEWYLAHLTGRPIHSSKESIFQQRGWCPLGRETAIQKLEWKDGWPYVVGGKEGLLEVEAPAMSVKEFSPTYHIVDEFKDSSLNRHFQTLRIPFTDQIGSVTENPHHLRLYGQESLTSKFTQAFVARRWQSFYFEAETAVSFFPKNFQQAAGLVNYYNTENWTALQVTYDDALGRILELSVCENLAFSQPLIKKIIIPDEIPYVYLKVTVQRETYTYSYSFDQQEWEKIDVPLESTHLSDDFIRGGGFFTGAFVGMQCQDTSGERLPADFKYFRYEETTE
- temperature optimum [1]: 35 °C
- pH optimum ([1]; 35° C.): ~7.5 pH
- cleavage of cellobiose (CB-F17) in substrate cocktail [2]: no enzymatic cleavage of cellobiose
- cleavage of xylobiose (XB-F17) in substrate cocktail [3]: conversion of xylobiose to xylose
